Data on one molecule can be found in publication PMC8855868.

In this data set the target is MeCP2 (human, UniProt P51608 1-486). Put plainly: MST.
MeCP2, sequence (P51608 whole entry): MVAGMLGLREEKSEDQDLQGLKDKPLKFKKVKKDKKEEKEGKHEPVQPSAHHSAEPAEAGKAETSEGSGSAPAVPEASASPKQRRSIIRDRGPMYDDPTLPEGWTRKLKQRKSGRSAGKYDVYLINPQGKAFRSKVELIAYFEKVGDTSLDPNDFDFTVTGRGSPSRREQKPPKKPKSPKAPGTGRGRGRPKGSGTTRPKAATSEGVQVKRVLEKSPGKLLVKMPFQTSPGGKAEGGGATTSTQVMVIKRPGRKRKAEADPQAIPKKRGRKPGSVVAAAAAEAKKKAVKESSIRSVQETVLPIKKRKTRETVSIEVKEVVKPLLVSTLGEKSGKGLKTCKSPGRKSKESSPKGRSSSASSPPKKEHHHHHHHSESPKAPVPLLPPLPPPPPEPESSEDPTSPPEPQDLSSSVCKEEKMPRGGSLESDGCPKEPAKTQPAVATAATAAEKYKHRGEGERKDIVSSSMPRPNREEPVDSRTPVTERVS

B1: 20 bp mC (dsDNA)
DNA 1: ACTACCATCCGGACCAGAAG
DNA 2: CTTCTGGTCCGGATGGTAGT
modifications: 5mC at position 10 of strand 1 and position 10 of strand 2 (printed as X)
Take B1: the binding result is on record as “binds”.
